Reference: patent publication US20200270588A1, “GLUCOSYL TRANSFERASE POLYPEPTIDES AND METHODS OF USE” (Syngenta Participations AG, priority 2017, published 2020)
Numbering of substitutions follows the chain as printed. Numbers in names are those of the source.

How the values were obtained:
[1] = UDP luminescence plate assay of E. coli extracts, mutants within SEQ ID No: 17, 2 mM metribuzin; assay type: biochemical, Zea mays; details: for metribuzin signal relative to the SEQ ID No:17 control (first parentheses) / ratio of metribuzin to DMSO signal (second parentheses) / SIGNAL: metribuzin signal of mutant divided by the signal of the SEQ ID No. 17 control / luminescence signal observed with 2 mM metribuzin: 2 mM metribuzin; for metribuzin signal relative to the SEQ ID No:17 control (first parentheses) / ratio of metribuzin to DMSO signal (second parentheses): additional mutation in SEQ ID No: 17; for SIGNAL: metribuzin signal of mutant divided by the signal of the SEQ ID No. 17 control: relative to SEQ ID No: 17 control; for luminescence signal in the DMSO control / luminescence signal observed with 2 mM metribuzin: additional mutations within SEQ ID No: 17; for luminescence signal in the DMSO control: DMSO in place of metribuzin; for luminescence signal observed with 2 mM metribuzin: control = SEQ ID No: 17
Experimental: Activities observed with metribuzin were generally lower in magnitude than seen with herbicide V in the previous examples. For example, in one plate assay run with 2 mM metribuzin using 5 ul of diluted extract of plate-grown BL21DE3 cells expressing w/t bx9 and assayed for 40 minutes (as described in Example 2) the UDP-Glo luminescence signal was ˜3.4 E6 as compared with ˜2.3E6 in the DMSO control and ˜1.7E6 in the H24A null mutant control. […] It was therefore important to assess potential improvements in the metribuzin activity of the various mutants relative to the wild type bx9 enzyme based not only on the H24A null activity control but also based upon controls with DMSO in place of metribuzin acceptor substrate. In some plate assays (using more dilute extracts) the metribuzin signals from the w/t enzyme was the same or barely greater than the DMSO control. Additionally, some mutations gave an increase in the ‘background’ UDP-glucose hydrolysis activity with just DMSO present that was the same or similar to the magnitude of the increase in signal seen with metribuzin. In these instances it is therefore uncertain from just this UDP-Glo assay method whether the specific metribuzin signal (glucosylation of metribuzin) is improved or not i.e. the signal seen with metribuzin may or may not all or to a large part be attributable to increased background hydrolysis). […] Thus the ratio of the metribuzin to DMSO signal as well as the increase in signal relative to the w/t bx9 is used to help distinguish those mutations most likely to offer the highest activity to metribuzin. A follow up assay monitored by, for example, LC MS is one method to distinguish these cases more quantitatively. The tables below summarise the results from two different sets of luminescence plate assays to detect single mutations giving improvements in the magnitude of the signal with metribuzin relative to w/t bx9 and/or the apparent specificity for metribuzin as measured by the deviation of the ratio of metribuzin to DMSO control activity from the bx9 w/t value of around unity.
A further separate screen was carried out to explore a library of additional mutations at various positions within the context of SEQ ID No: 17 for improved metribuzin activity. These were assayed, assessed and scored as above. […] These were S75K (2.5)(1.25), A236G (4.0)(1.15), A433V (3.3)(9.0) and R449C (1.8)(1.2).
A yet further and more comprehensive screen was carried out to explore saturation mutagenesis at all remaining amino acid positions within the context of SEQ ID No:17 for improved metribuzin activity. Again these were assayed, assessed and scored as above and the results of (out of the thousands screened) of the subset that were of interest are summarized in Table 16.

[2] = UDP luminescence plate assay of E. coli extracts, mutants of SEQ ID No: 1, 2 mM metribuzin; assay type: biochemical, Zea mays; details: for RATIO of the metribuzin signal to the DMSO signal: 2 mM metribuzin vs DMSO control, same mutant; for SIGNAL: metribuzin signal of mutant divided by the signal of w/t bx9 / luminescence signal observed with 2 mM metribuzin: 2 mM metribuzin; for SIGNAL: metribuzin signal of mutant divided by the signal of w/t bx9: relative to bx9 w/t; for luminescence signal in the DMSO control: mutants of SEQ ID No: 1, DMSO in place of metribuzin (background UDP-glucose hydrolysis); for luminescence signal observed with 2 mM metribuzin: mutants of SEQ ID No: 1 in E. coli extracts, UDP luminescence
Experimental: Optionally plate assays are stopped with brief heating to 95 C before returning to ice and addition of UDP-Glo detection reagent followed by incubation at lab temperature. […] In addition a UDP standard curve is run alongside each set of plate tests.
Assays were carried out on extracts of E. coli BL21 DE3 expressing the various C-terminally his-tagged library variants of SEQ ID NO:1 at the amino acid positions listed in Table 11 as described in Example 2 except, in this case, with 2 mM metribuzin in place of herbicide V.
Thus the ratio of the metribuzin to DMSO signal as well as the increase in signal relative to the w/t bx9 is used to help distinguish those mutations most likely to offer the highest activity to metribuzin. A follow up assay monitored by, for example, LC MS is one method to distinguish these cases more quantitatively.

B1: S75K: additional mutation in SEQ ID No: 17 (protein)
chain: MASSRTGAGAGGRVVVFPFPFQGHFNPVMRLARALHARGLAITVFHSGALDPADYPADYRFVPVTVEADPKLLAKEDIAAIVTTLNASCDAPFRARLSALLAAEGRDSVRCVFTDVVWNAVLTASSDLGVPALGMMTASAASLRDYMAYRTLIDKGYLPVKEERKEDPVPELPPYLVKDLLRVDTSDLEEFAELLARTVTAARRASGLIFNTFPLIETDTLAEIHKALSVPVFAVAPLNKLVPTATASLHGVVQADRGCLQWLDTQQPGSVLYVSFGSFAAMDPHEFVELAWGLADSKRPFVWVVRPNLIRGFESGALPDGVEDEVRGRGIVVKWAPQEEVLAHPAVGGFLTHNGWNSTVEAISEGVPMVCCPRHGDQFGNMRYVCDVWKVGTELVGEQLERGQVKAAIDRLFGTKEGEEIKERMKEFKIAAAKGIGIGVDVDETASPRTDLTDLVDLIKSF
modifications: Mutated Zea mays Bx9 protein sequence
metribuzin signal relative to the SEQ ID No:17 control (first parentheses) [1]: 2.5 | ratio of metribuzin to DMSO signal (second parentheses) [1]: 1.25

B2: H375Y: additional mutation in SEQ ID No: 17 (protein)
chain: B1 chain with K75S, H375Y
modifications: Mutated Zea mays Bx9 protein sequence
metribuzin signal relative to the SEQ ID No:17 control (first parentheses) [1]: 3.8 | ratio of metribuzin to DMSO signal (second parentheses) [1]: 2.33 | SIGNAL: metribuzin signal of mutant divided by the signal of the SEQ ID No. 17 control [1]: 3.80 | luminescence signal in the DMSO control [1]: 2.97E+06 | luminescence signal observed with 2 mM metribuzin [1]: 6.93E+06

B3: M425F: additional mutation in SEQ ID No: 17 (protein)
chain: B1 chain with K75S, M425F
modifications: Mutated Zea mays Bx9 protein sequence
metribuzin signal relative to the SEQ ID No:17 control (first parentheses) [1]: 4.1 | ratio of metribuzin to DMSO signal (second parentheses) [1]: 1.96 | SIGNAL: metribuzin signal of mutant divided by the signal of the SEQ ID No. 17 control [1]: 4.13 | luminescence signal in the DMSO control [1]: 3.84E+06 | luminescence signal observed with 2 mM metribuzin [1]: 7.53E+06

B4: A334P (protein)
chain: B1 chain with K75S, V117S, F279M, K334P
modifications: Zea mays
RATIO of the metribuzin signal to the DMSO signal [2]: 0.88 | SIGNAL: metribuzin signal of mutant divided by the signal of w/t bx9 [2]: 1.24 | luminescence signal in the DMSO control [2]: 3.97E+05 | luminescence signal observed with 2 mM metribuzin [2]: 3.48E+05

B5: G418Y: additional mutation in SEQ ID No: 17 (protein)
chain: B1 chain with K75S, G418Y
modifications: Mutated Zea mays Bx9 protein sequence
metribuzin signal relative to the SEQ ID No:17 control (first parentheses) [1]: 3.1 | ratio of metribuzin to DMSO signal (second parentheses) [1]: 1.47 | SIGNAL: metribuzin signal of mutant divided by the signal of the SEQ ID No. 17 control [1]: 3.11 | luminescence signal in the DMSO control [1]: 3.86E+06 | luminescence signal observed with 2 mM metribuzin [1]: 5.67E+06

B6: S364L: additional mutation in SEQ ID No: 17 (protein)
chain: B1 chain with K75S, S364L
modifications: Mutated Zea mays Bx9 protein sequence
RATIO of the metribuzin signal to the DMSO signal ([1]; 2 mM metribuzin vs DMSO control, same mutant): 1.19 | metribuzin signal relative to the SEQ ID No:17 control (first parentheses) [1]: 3.3 | ratio of metribuzin to DMSO signal (second parentheses) [1]: 1.20 | SIGNAL: metribuzin signal of mutant divided by the signal of the SEQ ID No. 17 control [1]: 3.29 | luminescence signal in the DMSO control [1]: 5.04E+06 | luminescence signal observed with 2 mM metribuzin [1]: 6.00E+06

B7: R424P: additional mutation in SEQ ID No: 17 (protein)
chain: B1 chain with K75S, R424P
modifications: Mutated Zea mays Bx9 protein sequence
metribuzin signal relative to the SEQ ID No:17 control (first parentheses) [1]: 2.5 | ratio of metribuzin to DMSO signal (second parentheses) [1]: 1.14 | SIGNAL: metribuzin signal of mutant divided by the signal of the SEQ ID No. 17 control [1]: 2.51 | luminescence signal in the DMSO control [1]: 4.02E+06 | luminescence signal observed with 2 mM metribuzin [1]: 4.58E+06

B8: C372L (protein)
chain: B1 chain with K75S, V117S, F279M, K334A, C372L
modifications: Zea mays
RATIO of the metribuzin signal to the DMSO signal [2]: 1.06 | SIGNAL: metribuzin signal of mutant divided by the signal of w/t bx9 [2]: 1.22 | luminescence signal in the DMSO control [2]: 3.22E+05 | luminescence signal observed with 2 mM metribuzin [2]: 3.41E+05

B9: G366H: additional mutation in SEQ ID No: 17 (protein)
chain: B1 chain with K75S, G366H
modifications: Mutated Zea mays Bx9 protein sequence
metribuzin signal relative to the SEQ ID No:17 control (first parentheses) [1]: 3.4 | ratio of metribuzin to DMSO signal (second parentheses) [1]: 1.34 | SIGNAL: metribuzin signal of mutant divided by the signal of the SEQ ID No. 17 control [1]: 3.38 | luminescence signal in the DMSO control [1]: 4.62E+06 | luminescence signal observed with 2 mM metribuzin [1]: 6.17E+06

B10: A433V: additional mutation in SEQ ID No: 17 (protein)
chain: B1 chain with K75S, A433V
modifications: Mutated Zea mays Bx9 protein sequence
metribuzin signal relative to the SEQ ID No:17 control (first parentheses) [1]: 3.3 | ratio of metribuzin to DMSO signal (second parentheses) [1]: 9.0

B11: A236G: additional mutation in SEQ ID No: 17 (protein)
chain: B1 chain with K75S, A236G
modifications: Mutated Zea mays Bx9 protein sequence
metribuzin signal relative to the SEQ ID No:17 control (first parentheses) [1]: 4.0 | ratio of metribuzin to DMSO signal (second parentheses) [1]: 1.15

B12: K429S: additional mutation in SEQ ID No: 17 (protein)
chain: B1 chain with K75S, K429S
modifications: Mutated Zea mays Bx9 protein sequence
metribuzin signal relative to the SEQ ID No:17 control (first parentheses) [1]: 2.4 | ratio of metribuzin to DMSO signal (second parentheses) [1]: 1.30 | SIGNAL: metribuzin signal of mutant divided by the signal of the SEQ ID No. 17 control [1]: 2.38 | luminescence signal in the DMSO control [1]: 3.34E+06 | luminescence signal observed with 2 mM metribuzin [1]: 4.34E+06

B13: A334I (protein)
chain: B1 chain with K75S, V117S, F279M, K334I
modifications: Zea mays
RATIO of the metribuzin signal to the DMSO signal [2]: 0.89 | SIGNAL: metribuzin signal of mutant divided by the signal of w/t bx9 [2]: 1.05 | luminescence signal in the DMSO control [2]: 3.29E+05 | luminescence signal observed with 2 mM metribuzin [2]: 2.94E+05

B14: H24A (protein)
chain: B1 chain with H24A, K75S, V117S, F279M, K334A
modifications: Zea mays
luminescence signal in the DMSO control [2]: 2.60E+05 | luminescence signal observed with 2 mM metribuzin [2]: 2.39E+05

B15: R449C: additional mutation in SEQ ID No: 17 (protein)
chain: B1 chain with K75S, R449C
modifications: Mutated Zea mays Bx9 protein sequence
metribuzin signal relative to the SEQ ID No:17 control (first parentheses) [1]: 1.8 | ratio of metribuzin to DMSO signal (second parentheses) [1]: 1.2

B16: V360M: additional mutation in SEQ ID No: 17 (protein)
chain: B1 chain with K75S, V360M
modifications: Mutated Zea mays Bx9 protein sequence
metribuzin signal relative to the SEQ ID No:17 control (first parentheses) [1]: 2.0 | ratio of metribuzin to DMSO signal (second parentheses) [1]: 1.28 | SIGNAL: metribuzin signal of mutant divided by the signal of the SEQ ID No. 17 control [1]: 2.02 | luminescence signal in the DMSO control [1]: 2.88E+06 | luminescence signal observed with 2 mM metribuzin [1]: 3.68E+06
